In US20070117966A1:
pIC50: −log10 of the molar value.

Biological target: purified αvβ3 integrin (human) (UniProt P06756)
Test: competition ELISA on αvβ3 coated wells; competitor: biotinylated FNfn10-3JCLI4 at 800 pM; no inhibition at the highest concentration

Question: How did the pIC50 turn out when “wild-type FNfn10 (FNfn10-WT), purified protein (from UniProt P02751 1538-1631)” was run?
Answer: < 7.10
